# According to the supplement of paper PMC9112550, “Optimization of the antimicrobial peptide Bac7 by deep mutational scanning” (BMC Biology, 2022):
# Test system: Escherichia coli TOP10
# Assay: shrunken log2 fold change of peptide-encoding DNA abundance (4.5 h post-induction vs induction); higher = less antimicrobial activity (less host growth inhibition)
# Details: time post-induction: 4.5 h; library: site-saturation at positions 5, 18, 19, 20
# 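Further: peptides expressed intracellularly from a pBAD plasmid library in pooled LB shake-flask culture, induced with 0.3% L-arabinose, DNA abundance read by NGS, three biological replicates, DESeq2 with apeglm shrinkage.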
row,Sequence,shrunken log2 fold change
1,RRIRWRPPRLPRPRPRPWILPRP,-0.19
2,RRIRHRPPRLPRPRPRPVNSPRP,0.158
3,RRIRVRPPRLPRPRPRPQHHPRP,-0.182
4,RRIRHRPPRLPRPRPRPTEKPRP,0.0288
5,RRIRERPPRLPRPRPRPSPYPRP,-0.277
6,RRIRWRPPRLPRPRPRPQYHPRP,-0.505
7,RRIRRRPPRLPRPRPRPIQLPRP,-0.407
8,RRIRFRPPRLPRPRPRPFPNPRP,-0.0354
9,RRIRDRPPRLPRPRPRPNIKPRP,-0.384
10,RRIRDRPPRLPRPRPRPWCKPRP,-0.171
11,RRIRDRPPRLPRPRPRPVHAPRP,0.209
12,RRIRYRPPRLPRPRPRPPEGPRP,-0.455
13,RRIRFRPPRLPRPRPRPAWTPRP,-0.0896
14,RRIRNRPPRLPRPRPRPLEMPRP,-0.0434
15,RRIRCRPPRLPRPRPRPHMDPRP,-0.329
16,RRIRWRPPRLPRPRPRPKSWPRP,0.389
17,RRIRRRPPRLPRPRPRPARAPRP,0.523
18,RRIRVRPPRLPRPRPRPHPSPRP,0.168
19,RRIRPRPPRLPRPRPRPDKTPRP,0.015
20,RRIRMRPPRLPRPRPRPGWVPRP,0.0878
21,RRIRHRPPRLPRPRPRPDKMPRP,-0.0794
22,RRIRMRPPRLPRPRPRPCGLPRP,0.533
23,RRIRLRPPRLPRPRPRPNRVPRP,-0.0939
24,RRIRKRPPRLPRPRPRPNFSPRP,-0.084
25,RRIRRRPPRLPRPRPRPPTAPRP,0.569

row,Sequence,shrunken log2 fold change
1,RRIRFRPPRLPRPRPRPVIEPRP,-0.161
2,RRIRYRPPRLPRPRPRPDQHPRP,-0.13
3,RRIRCRPPRLPRPRPRPVYSPRP,-0.156
4,RRIRLRPPRLPRPRPRPYWDPRP,-0.195
5,RRIRFRPPRLPRPRPRPIHPPRP,-0.385
6,RRIRSRPPRLPRPRPRPKDIPRP,-0.828
7,RRIRGRPPRLPRPRPRPARDPRP,0.585
8,RRIRMRPPRLPRPRPRPRTQPRP,0.97
9,RRIRYRPPRLPRPRPRPPKVPRP,-0.149
10,RRIRFRPPRLPRPRPRPVSNPRP,-0.0552
11,RRIRRRPPRLPRPRPRPVLNPRP,0.0825
12,RRIRNRPPRLPRPRPRPISGPRP,-0.0579
13,RRIRQRPPRLPRPRPRPGEYPRP,-0.0469
14,RRIRERPPRLPRPRPRPPCTPRP,0.0136
15,RRIRSRPPRLPRPRPRPLIAPRP,0.0475
16,RRIRWRPPRLPRPRPRPLQWPRP,0.346
17,RRIRIRPPRLPRPRPRPIMVPRP,-0.412
18,RRIRNRPPRLPRPRPRPTQKPRP,0.241
19,RRIRHRPPRLPRPRPRPIKQPRP,-0.0565
20,RRIRDRPPRLPRPRPRPNTVPRP,-0.364
21,RRIRMRPPRLPRPRPRPCCDPRP,0.393
22,RRIRPRPPRLPRPRPRPNIGPRP,0.0125
23,RRIRNRPPRLPRPRPRPNDTPRP,-0.236
24,RRIRHRPPRLPRPRPRPEWTPRP,0.0291
25,RRIRSRPPRLPRPRPRPDRMPRP,-0.129

row,Sequence,shrunken log2 fold change
1,RRIRSRPPRLPRPRPRPHFSPRP,-0.112
2,RRIRERPPRLPRPRPRPPNEPRP,0.28
3,RRIRLRPPRLPRPRPRPHPWPRP,-0.0939
4,RRIRTRPPRLPRPRPRPHSDPRP,-0.00801
5,RRIRRRPPRLPRPRPRPPWQPRP,2.01
6,RRIRGRPPRLPRPRPRPMRMPRP,1.4
7,RRIRTRPPRLPRPRPRPYGIPRP,-0.0927
8,RRIRSRPPRLPRPRPRPNHWPRP,-0.277
9,RRIRPRPPRLPRPRPRPITPPRP,0.0216
10,RRIRTRPPRLPRPRPRPHRKPRP,-0.0762
11,RRIRSRPPRLPRPRPRPPEWPRP,0.263
12,RRIRNRPPRLPRPRPRPYCMPRP,-0.776
13,RRIRRRPPRLPRPRPRPMSGPRP,0.0609
14,RRIRVRPPRLPRPRPRPFPHPRP,-0.366
15,RRIRWRPPRLPRPRPRPWAEPRP,0.267
16,RRIRHRPPRLPRPRPRPHVKPRP,-0.00471
17,RRIRKRPPRLPRPRPRPRRSPRP,0.0846
18,RRIRLRPPRLPRPRPRPSRMPRP,-0.241
19,RRIRVRPPRLPRPRPRPSSQPRP,-0.0546
20,RRIRYRPPRLPRPRPRPVDCPRP,-0.103
21,RRIRSRPPRLPRPRPRPHYSPRP,-0.596
22,RRIRSRPPRLPRPRPRPYPNPRP,0.00334
23,RRIRCRPPRLPRPRPRPQIWPRP,-0.226
24,RRIRHRPPRLPRPRPRPKDCPRP,0.00375
25,RRIRVRPPRLPRPRPRPYGSPRP,-0.409

row,Sequence,shrunken log2 fold change
1,RRIRARPPRLPRPRPRPCAYPRP,-0.399
2,RRIRNRPPRLPRPRPRPAHNPRP,-0.259
3,RRIRKRPPRLPRPRPRPEHNPRP,0.368
4,RRIRHRPPRLPRPRPRPLVIPRP,-0.343
5,RRIRRRPPRLPRPRPRPRKGPRP,0.215
6,RRIRTRPPRLPRPRPRPFTLPRP,-0.312
7,RRIRRRPPRLPRPRPRPKNMPRP,-0.00338
8,RRIRNRPPRLPRPRPRPLVWPRP,0.124
9,RRIRIRPPRLPRPRPRPYMFPRP,-0.892
10,RRIRPRPPRLPRPRPRPPTIPRP,-0.148
11,RRIRVRPPRLPRPRPRPNVYPRP,-0.787
12,RRIRFRPPRLPRPRPRPMDNPRP,0.000389
13,RRIRGRPPRLPRPRPRPHFPPRP,0.0246
14,RRIRFRPPRLPRPRPRPTICPRP,-0.288
15,RRIRARPPRLPRPRPRPADSPRP,0.00021
16,RRIRERPPRLPRPRPRPNSSPRP,-0.494
17,RRIRHRPPRLPRPRPRPGAWPRP,0.265
18,RRIRRRPPRLPRPRPRPGVGPRP,0.59
19,RRIRRRPPRLPRPRPRPMESPRP,-0.00992
20,RRIRQRPPRLPRPRPRPYMAPRP,-0.274
21,RRIRTRPPRLPRPRPRPTSCPRP,0.104
22,RRIRVRPPRLPRPRPRPIWHPRP,-0.164
23,RRIRSRPPRLPRPRPRPAAGPRP,0.585
24,RRIRWRPPRLPRPRPRPKHPPRP,0.442
25,RRIRRRPPRLPRPRPRPFRMPRP,-0.0671

row,Sequence,shrunken log2 fold change
1,RRIRRRPPRLPRPRPRPGYMPRP,0.0939
2,RRIRARPPRLPRPRPRPQNYPRP,-0.1
3,RRIRCRPPRLPRPRPRPKRTPRP,0.642
4,RRIRMRPPRLPRPRPRPCIPPRP,-0.159
5,RRIRGRPPRLPRPRPRPMQWPRP,-0.0537
6,RRIRNRPPRLPRPRPRPNCKPRP,-0.424
7,RRIRNRPPRLPRPRPRPSRPPRP,0.112
8,RRIRMRPPRLPRPRPRPVHAPRP,1.18
9,RRIRMRPPRLPRPRPRPDNEPRP,0.379
10,RRIRARPPRLPRPRPRPLAGPRP,2.52
11,RRIRFRPPRLPRPRPRPPPIPRP,1.02
12,RRIRDRPPRLPRPRPRPVRRPRP,0.971
13,RRIRYRPPRLPRPRPRPYQDPRP,-1.1
14,RRIRYRPPRLPRPRPRPPWKPRP,0.0467
15,RRIRRRPPRLPRPRPRPVCDPRP,0.621
16,RRIRGRPPRLPRPRPRPIWAPRP,0.267
17,RRIRKRPPRLPRPRPRPCPYPRP,0.151
18,RRIRQRPPRLPRPRPRPRNMPRP,-0.211
19,RRIRQRPPRLPRPRPRPQPFPRP,-0.0492
20,RRIRYRPPRLPRPRPRPDKAPRP,0.0133
21,RRIRDRPPRLPRPRPRPMRKPRP,0.763
22,RRIRMRPPRLPRPRPRPVHMPRP,-0.318
23,RRIRNRPPRLPRPRPRPKDKPRP,-0.112
24,RRIRGRPPRLPRPRPRPGQFPRP,-0.00612
25,RRIRGRPPRLPRPRPRPCQPPRP,-0.0639

row,Sequence,shrunken log2 fold change
1,RRIRHRPPRLPRPRPRPFFMPRP,-0.564
2,RRIRHRPPRLPRPRPRPCLFPRP,-0.229
3,RRIRIRPPRLPRPRPRPWMRPRP,-0.37
4,RRIRERPPRLPRPRPRPDFDPRP,-0.356
5,RRIRGRPPRLPRPRPRPNAKPRP,1.22
6,RRIRTRPPRLPRPRPRPLECPRP,-0.0489
7,RRIRIRPPRLPRPRPRPDPPPRP,0.075
8,RRIRNRPPRLPRPRPRPHWRPRP,0.201
9,RRIRVRPPRLPRPRPRPESFPRP,-0.0103
10,RRIRCRPPRLPRPRPRPVNYPRP,-0.376
11,RRIRDRPPRLPRPRPRPKYGPRP,-0.0519
12,RRIRRRPPRLPRPRPRPETHPRP,0.697
13,RRIRERPPRLPRPRPRPNLYPRP,-0.022
14,RRIRPRPPRLPRPRPRPLFEPRP,0.163
15,RRIRNRPPRLPRPRPRPNSSPRP,-0.219
16,RRIRTRPPRLPRPRPRPCGNPRP,-0.0693
17,RRIRKRPPRLPRPRPRPGANPRP,0.179
18,RRIRFRPPRLPRPRPRPVYKPRP,-0.295
19,RRIRGRPPRLPRPRPRPDETPRP,0.349
20,RRIRGRPPRLPRPRPRPFRGPRP,-0.0655
21,RRIRIRPPRLPRPRPRPPAEPRP,0.583
22,RRIRPRPPRLPRPRPRPCVIPRP,-0.222
23,RRIRRRPPRLPRPRPRPNSFPRP,-0.29
24,RRIRGRPPRLPRPRPRPRFDPRP,0.382
25,RRIRHRPPRLPRPRPRPVLRPRP,-0.0204
